# Measured values from US8415393B2, “Anti-bacterial drug targeting of genome maintenance interfaces” (Wisconsin Alumni Research Foundation, priority 2007, dated 2013).
# Where no end group is shown, it is not given here. fluorescein = fluorescein moiety attached to the N-terminus of the peptide (N-terminal fluorescein label)
# T1: ExoI Leu331Ala variant (Escherichia coli, UniProt P04995 1-475)
# T1 construct: also called L331A
# T1 sequence: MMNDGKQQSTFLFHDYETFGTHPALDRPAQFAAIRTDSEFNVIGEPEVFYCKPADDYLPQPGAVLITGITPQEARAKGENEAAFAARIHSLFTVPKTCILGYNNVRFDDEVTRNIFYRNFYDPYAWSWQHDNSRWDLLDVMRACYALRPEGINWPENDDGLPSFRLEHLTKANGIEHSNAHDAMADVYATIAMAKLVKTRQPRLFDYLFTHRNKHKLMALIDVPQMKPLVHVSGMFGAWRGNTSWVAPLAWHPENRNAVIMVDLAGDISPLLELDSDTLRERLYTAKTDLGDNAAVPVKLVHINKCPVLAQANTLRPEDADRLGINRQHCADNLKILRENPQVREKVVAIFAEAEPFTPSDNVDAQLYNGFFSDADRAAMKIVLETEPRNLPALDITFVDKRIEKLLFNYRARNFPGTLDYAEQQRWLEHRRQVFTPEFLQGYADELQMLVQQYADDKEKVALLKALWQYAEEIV
# T2: ExoI Gln452Ala variant (Escherichia coli, UniProt P04995 1-475)
# T2 construct: helical domain residue; also called Q452A; Gln452 variant
# T2 sequence: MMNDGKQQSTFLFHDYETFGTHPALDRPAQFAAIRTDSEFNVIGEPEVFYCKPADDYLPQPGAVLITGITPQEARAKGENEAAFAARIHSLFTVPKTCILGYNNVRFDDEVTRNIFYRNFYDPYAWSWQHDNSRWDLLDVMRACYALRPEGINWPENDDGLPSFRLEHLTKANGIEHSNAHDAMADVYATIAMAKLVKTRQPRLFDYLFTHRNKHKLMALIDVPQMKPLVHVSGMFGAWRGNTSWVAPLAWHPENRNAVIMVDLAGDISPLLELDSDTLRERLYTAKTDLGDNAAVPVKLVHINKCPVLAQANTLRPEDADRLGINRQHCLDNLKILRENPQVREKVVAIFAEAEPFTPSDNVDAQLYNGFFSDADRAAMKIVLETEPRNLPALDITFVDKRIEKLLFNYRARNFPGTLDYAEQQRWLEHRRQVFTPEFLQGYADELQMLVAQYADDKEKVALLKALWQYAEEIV
# T3: ExoI Asp319Ala variant (Escherichia coli, UniProt P04995 1-475)
# T3 construct: also called D319A; Asp319 variant
# T3 sequence: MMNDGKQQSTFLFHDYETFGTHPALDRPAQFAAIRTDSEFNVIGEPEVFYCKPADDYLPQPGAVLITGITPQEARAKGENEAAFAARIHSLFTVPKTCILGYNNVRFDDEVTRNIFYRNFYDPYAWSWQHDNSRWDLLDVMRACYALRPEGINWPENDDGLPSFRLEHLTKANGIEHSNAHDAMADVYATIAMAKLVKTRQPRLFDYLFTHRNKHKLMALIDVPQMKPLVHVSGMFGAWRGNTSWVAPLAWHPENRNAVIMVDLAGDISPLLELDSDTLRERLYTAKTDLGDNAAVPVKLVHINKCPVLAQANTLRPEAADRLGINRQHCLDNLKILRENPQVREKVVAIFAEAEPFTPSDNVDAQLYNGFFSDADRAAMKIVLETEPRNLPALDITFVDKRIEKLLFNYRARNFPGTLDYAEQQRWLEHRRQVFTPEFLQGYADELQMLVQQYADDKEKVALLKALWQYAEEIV
# T4: ExoI Arg327Ala variant (Escherichia coli, UniProt P04995 1-475)
# T4 construct: also called R327A
# T4 sequence: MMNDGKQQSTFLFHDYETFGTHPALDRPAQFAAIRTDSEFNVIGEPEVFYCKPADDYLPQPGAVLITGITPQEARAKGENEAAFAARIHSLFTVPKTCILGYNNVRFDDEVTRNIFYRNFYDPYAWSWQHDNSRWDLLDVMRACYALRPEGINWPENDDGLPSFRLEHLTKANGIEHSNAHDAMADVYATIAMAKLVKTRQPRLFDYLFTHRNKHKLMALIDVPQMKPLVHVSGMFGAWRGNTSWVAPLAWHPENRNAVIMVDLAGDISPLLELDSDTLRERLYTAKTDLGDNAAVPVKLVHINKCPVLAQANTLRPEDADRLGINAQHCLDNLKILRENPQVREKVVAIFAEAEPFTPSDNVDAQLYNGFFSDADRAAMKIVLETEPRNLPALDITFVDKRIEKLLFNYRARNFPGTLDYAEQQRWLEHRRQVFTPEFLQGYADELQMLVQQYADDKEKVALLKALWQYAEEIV
# T5: ExoI Gln448Ala variant (Escherichia coli, UniProt P04995 1-475)
# T5 construct: helical domain residue; also called Q448A; Gln448 variant
# T5 sequence: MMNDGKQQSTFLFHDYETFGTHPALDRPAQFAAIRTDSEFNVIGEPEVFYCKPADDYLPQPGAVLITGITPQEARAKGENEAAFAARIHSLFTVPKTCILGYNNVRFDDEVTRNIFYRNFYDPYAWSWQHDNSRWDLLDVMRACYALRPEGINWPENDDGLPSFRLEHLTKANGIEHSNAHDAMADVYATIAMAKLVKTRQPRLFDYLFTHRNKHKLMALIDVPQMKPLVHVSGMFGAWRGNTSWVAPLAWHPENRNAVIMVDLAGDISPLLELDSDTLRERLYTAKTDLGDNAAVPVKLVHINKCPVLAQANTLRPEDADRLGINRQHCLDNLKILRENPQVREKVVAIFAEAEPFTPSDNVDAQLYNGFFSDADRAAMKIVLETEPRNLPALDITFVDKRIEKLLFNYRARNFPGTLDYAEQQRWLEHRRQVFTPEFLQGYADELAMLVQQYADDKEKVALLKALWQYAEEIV
# What was measured:
# Assay in all cases: fluorescence anisotropy equilibrium binding (Kd,app), ExoI variant titrated into fluorescein-labeled peptide
# [1] = molecular target: T1, ExoI Leu331Ala variant
# [2] = molecular target: T2, ExoI Gln452Ala variant
# [3] = molecular target: T3, ExoI Asp319Ala variant
# [4] = molecular target: T4, ExoI Arg327Ala variant
# [5] = molecular target: T5, ExoI Gln448Ala variant
binder,measurement,setting,value
fluorescein-WMDFDDDIPF (also called F-SSB-Ct; F-WT) [fluorescein-labeled SSB C-terminal peptide (fluorescein-WMDFDDDIPF)],Kd,[1],193 nM
same,Kd,[2],212 nM
same,Kd,[3],299 nM
same,Kd,[4],270 nM
same,Kd,[5],181 nM
